# Measured values reported in US20210355178A1 (UNIVERSIT T ULM, published 2021).
# B1: DAF-Fc (Fc fusion)
# chain: DCGLPPDVPNAQPALEGRTSFPEDTVITYKCEESFVKIPGEKDSVICLKGSQWSDIEEFCNRSCEVPTRLNSASLKQPYITQNYFPVGTVVEYECRPGYRREPSLSPKLTCLQNLKWSTAVEFCKKKSCPNPGEIRNGQIDVPGGILFGATISFSCNTGYKLFGSTSSFCLISGSSVQWSDPLPECREIYCPAPPQIDNGIIQGERDHYGYRQSVTYACNKGFTMIGEHSIYCTVNNDEGEWSGPPPECRGGGGGGPGCPAPELLGGPSVFLFPPKPKDTLMISRTPEVTCVVVDVSHEDPEVKFNWYVDGVEVHNAKTKPREEQYQSTYRVVSVLTVLHQDWLNGKEYKCKVSNKALPAPIEKTISKAKGQPREPQVYTLPPSREEMTKNQVSLTCLVKGFYPSDIAVEWESNGQPENNYKTTPPVLDSDGSFFLYSKLTVDKSRWQQGNVFSCSVMHEALHNHYTQKSLSLSPGGGGGGG
# notes: not shown: Fc module at the C-terminus
# B2: miniFH-Fc (Fc fusion)
# chain: EDCNELPPRRNTEILTGSWSDQTYPEGTQAIYKCRPGYRSLGNIIMVCRKGEWVALNPLRKCQKRPCGHPGDTPFGTFTLTGGNVFEYGVKAVYTCNEGYQLLGEINYRECDTDGWTNDIPICEVVKCLPVTAPENGKIVSSAMEPDREYHFGQAVRFVCNSGYKIEGDEEMHCSDDGFWSKEKPKCVEISCKSPDVINGSPISQKIIYKENERFQYKCNMGYEYSERGDAVCTESGWRPLPSCEEAGGGGGGGGGGGGGKCGPPPPIDNGDITSFPLSVYAPASSVEYQCQNLYQLEGNKRITCRNGQWSEPPKCLHPCVISREIMENYNIALRWTAKQKLYSRTGESVEFVCKRGYRLSSRSHTLRTTCWDGKLEYPTCAGPGGGGGPGCPAPELLGGPSVFLFPPKPKDTLMISRTPEVTCVVVDVSHEDPEVKFNWYVDGVEVHNAKTKPREEQYQSTYRVVSVLTVLHQDWLNGKEYKCKVSNKALPAPIEKTISKAKGQPREPQVYTLPPSREEMTKNQVSLTCLVKGFYPSDIAVEWESNGQPENNYKTTPPVLDSDGSFFLYSKLTVDKSRWQQGNVFSCSVMHEALHNHYTQKSLSLSPGGGGGGG
# notes: Produced in Pichia pastoris
# Legend:
# complement factor C3b [1] = biological target: T1, complement factor C3b (UniProt P01024 23-667; P01024 749-1663); test: SPR, C3b amine-coupled (5610 RU), DAF-Fc as analyte
# Description: 2600 RU of Bb were deposited by standard amine coupling onto a carboxymethyldextran sensorchip. Running buffer was PBS supplemented with 1 mM MgCl2 and 0.005% Tween 20. […] 5610 RU of C3b were deposited by standard amine coupling onto a carboxymethyldextran sensorchip. Running buffer was PBS supplemented with 1 mM MgCl2 and 0.005% Tween 20.
# complement factor C3b [2] = biological target: T1, complement factor C3b; test: SPR, C3b amine-coupled (4030 RU), 1:1 steady-state affinity fit
# Excerpt: FIG. 3: C3b binding activity of miniFH and Fc-fusion variants of miniFH. Surface plasmon resonance (SPR) sensorgrams for C3b binding of miniFH (A), miniFH-Fc (C), Fc-miniFH (E) and Fc-miniFH-short (G) (assayed at a concentration range as specified; 4030 RU of C3b were deposited by amine). (B) Respective concentration response plots with fitted affinity (1:1 steady-state affinity fit) for C3b binding of miniFH (B), miniFH-Fc (D), Fc-miniFH (F) and Fc-miniFH-short (H) are shown. The affinity equilibrium constant is stated in the panes.
# Surface plasmon resonance experiments were performed at 25° C. on a Reichert SR7500DC SPR instrument in PBS containing 0.005% Tween20 at a flow of 25 μl/min. 4030 response units (RU) of C3b were immobilized onto a carboxymethyldextran (CMD) 500 sensor chip (Xantec) and binding to amine coupled C3b was assayed. The analytes were injected at the indicated concentrations. To probe binding, a concentration series of miniFH or Fc fusions of miniFH were injected (at 25 μl/min for 2.5 min) followed by buffer flow for 300 s and a regeneration step consisting of an injection of 1 M NaCl for 30 s. The highest concentration of each series was injected twice to assess reproducibility. […]
# T1 sequence (P01024 23-667 limits assumed, chain 1 of 2): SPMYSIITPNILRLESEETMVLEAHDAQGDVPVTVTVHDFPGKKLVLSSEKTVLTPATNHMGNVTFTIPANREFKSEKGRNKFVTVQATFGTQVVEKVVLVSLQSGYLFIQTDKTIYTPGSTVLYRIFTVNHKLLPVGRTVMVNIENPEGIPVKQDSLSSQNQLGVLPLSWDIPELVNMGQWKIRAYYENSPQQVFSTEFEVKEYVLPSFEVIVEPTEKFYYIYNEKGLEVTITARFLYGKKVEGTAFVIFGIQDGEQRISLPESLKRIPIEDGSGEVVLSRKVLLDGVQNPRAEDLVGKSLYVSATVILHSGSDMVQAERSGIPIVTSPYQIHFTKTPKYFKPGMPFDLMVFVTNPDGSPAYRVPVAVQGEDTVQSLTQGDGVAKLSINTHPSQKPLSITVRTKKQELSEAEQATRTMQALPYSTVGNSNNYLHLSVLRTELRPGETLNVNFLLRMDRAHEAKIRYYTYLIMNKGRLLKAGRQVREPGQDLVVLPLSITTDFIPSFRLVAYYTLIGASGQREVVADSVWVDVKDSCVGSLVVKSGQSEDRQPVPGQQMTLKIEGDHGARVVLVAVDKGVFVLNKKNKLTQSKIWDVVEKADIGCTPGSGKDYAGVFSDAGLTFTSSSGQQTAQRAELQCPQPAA
# T1 sequence (P01024 749-1663 limits assumed, chain 2 of 2): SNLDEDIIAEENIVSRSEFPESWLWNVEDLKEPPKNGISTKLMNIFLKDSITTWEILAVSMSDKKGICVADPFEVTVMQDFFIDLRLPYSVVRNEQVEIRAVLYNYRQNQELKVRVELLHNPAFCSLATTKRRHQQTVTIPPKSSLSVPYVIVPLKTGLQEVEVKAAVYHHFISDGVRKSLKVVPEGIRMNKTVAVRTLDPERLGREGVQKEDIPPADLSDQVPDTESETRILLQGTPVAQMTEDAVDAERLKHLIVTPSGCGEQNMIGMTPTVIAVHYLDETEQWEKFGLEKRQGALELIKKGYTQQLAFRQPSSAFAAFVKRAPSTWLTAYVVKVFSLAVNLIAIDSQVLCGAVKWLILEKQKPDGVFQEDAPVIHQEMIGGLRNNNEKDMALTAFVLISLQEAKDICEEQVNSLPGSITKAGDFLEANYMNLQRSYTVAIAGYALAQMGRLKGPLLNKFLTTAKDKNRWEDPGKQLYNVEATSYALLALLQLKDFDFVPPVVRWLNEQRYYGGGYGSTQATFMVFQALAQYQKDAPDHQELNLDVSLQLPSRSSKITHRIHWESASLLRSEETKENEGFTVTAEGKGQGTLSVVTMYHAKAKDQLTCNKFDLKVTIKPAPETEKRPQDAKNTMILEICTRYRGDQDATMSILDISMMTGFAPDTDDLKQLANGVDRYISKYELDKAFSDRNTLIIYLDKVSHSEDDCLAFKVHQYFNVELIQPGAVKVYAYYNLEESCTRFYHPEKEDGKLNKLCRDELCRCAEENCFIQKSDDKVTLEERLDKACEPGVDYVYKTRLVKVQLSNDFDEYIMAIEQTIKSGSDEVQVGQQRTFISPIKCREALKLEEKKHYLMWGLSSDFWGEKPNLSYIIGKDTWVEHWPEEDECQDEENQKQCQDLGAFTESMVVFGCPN
Binder,binding result (complement factor C3b [1]),fold increased affinity over miniFH (complement factor C3b [2]) [fold]
B1,no binding,–
B2,–,~2
